Among the data in PMC6499931 are NK cell-mediated ADCC against the FucGM1+ SCLC cell line DMS79, EC50 and EC50 values, retold here.

In test [1] the target is human FcγRIIIa stably expressed on CHO cells (human) (UniProt P08637).
Test [2] shares this target. Nature of the test: flow cytometry on cells.

In general, EC50 refers to the concentration giving half of the maximal effect. Read a low EC50 as higher potency in that assay.

Sequence of UniProt P08637 (P08637 17-254): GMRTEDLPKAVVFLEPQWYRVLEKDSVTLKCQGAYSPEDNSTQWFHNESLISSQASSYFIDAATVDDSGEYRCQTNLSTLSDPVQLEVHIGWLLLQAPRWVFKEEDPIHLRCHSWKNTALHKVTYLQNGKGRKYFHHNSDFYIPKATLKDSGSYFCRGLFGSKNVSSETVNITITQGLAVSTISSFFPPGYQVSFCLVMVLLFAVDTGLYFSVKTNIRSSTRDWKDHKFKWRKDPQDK

B1: BMS-986012, nonfucosylated fully human IgG1 anti-fucosyl-GM1 antibody (antibody, V domains shown)
VH: EVQLVESGGGSVQPGESLRLSCVASGFTFSRYKMNWVRQAPGKGLEWVSYISRSGRDIYYADSVKGRFTISRDNAKNSLYLQMNSLRDEDTAVYYCAGTVTTYYYDFGMDVWGQGTTVTVSS
VL: DIQMTQSPSSLSASVGDRVTITCRASQGISSWLAWYQQKPEKAPKSLIYAASSLQSGVPSRFSGSGSGTDFTLTISSLQPEDFATYYCQQYNSYPPTFGGGTKVEIK
The molecule B1 displayed an NK cell-mediated ADCC against the FucGM1+ SCLC cell line DMS79, EC50 in test [1] of 0.06 nM. The EC50 in test [2] stood at 3.5 nM.

B2: 7E4, fucosylated parental anti-fucosyl-GM1 antibody in conventional fucosylated IgG1 format (antibody, V domains shown)
VH: EVQLVESGGGSVQPGESLRLSCVASGFTFSRYKMNWVRQAPGKGLEWVSYISRSGRDIYYADSVKGRFTISRDNAKNSLYLQMNSLRDEDTAVYYCAGTVTTYYYDFGMDVWGQGTTVTVSS
VL: DIQMTQSPSSLSASVGDRVTITCRASQGISSWLAWYQQKPEKAPKSLIYAASSLQSGVPSRFSGSGSGTDFTLTISSLQPEDFATYYCQQYNSYPPTFGGGTKVEIK
With B2, the NK cell-mediated ADCC against the FucGM1+ SCLC cell line DMS79, EC50 in test [1] worked out at 8 nM. In test [2], the EC50 was found to be 138 nM.
